From article doi:10.1101/276204 (bioRxiv, 2018) come the findings set out here.

The stoichiometry N is the number of molecules, sites or subunits per partner or assembly.

To fix the notation:
B2: eGFP-CENP-E^2070-C (domain or fragment, Homo sapiens, UniProt Q02224 2070-2701, looked up)
chain: RQNHQVKPEKRLLSDGQQHLTESLREKCSRIKELLKRYSEMDDHYECLNRLSLDLEKEIEFQKELSMRVKANLSLPYLQTKHIEKLFTANQRCSMEFHRIMKKLKYVLSYVTKIKEEQHESINKFEMDFIDEVEKQKELLIKIQHLQQDCDVPSRELRDLKLNQNMDLHIEEILKDFSESEFPSIKTEFQQVLSNRKEMTQFLEEWLNTRFDIEKLKNGIQKENDRICQVNNFFNNRIIAIMNESTEFEERSATISKEWEQDLKSLKEKNEKLFKNYQTLKTSLASGAQVNPTTQDNKNPHVTSRATQLTTEKIRELENSLHEAKESAMHKESKIIKMQKELEVTNDIIAKLQAKVHESNKCLEKTKETIQVLQDKVALGAKPYKEEIEDLKMKLVKIDLEKMKNAKEFEKEISATKATVEYQKEVIRLLRENLRRSQQAQDTSVISEHTDPQPSNKPLTCGGGSGIVQNTKALILKSEHIRLEKEISKLKQQNEQLIKQKNELLSNNQHLSNEVKTWKERTLKREAHKQVTCENSPKSPKVTGTASKKKQITPSQCKERNLQDPVPKESPKSCFFDSRSKSLPSPHPVRYFDNSSLGLCPEVQNAGAESVDSQPGPWHASSGKDVPECKTQ

Test [1] deals with mCherry-CENP-F^2922-2990 (Homo sapiens) (UniProt P49454). Briefly: AUC.
Test [2] has as its target mCherry-CENP-F^2866-2990 (Homo sapiens) (UniProt P49454). Briefly: AUC.
The test “eGFP-CENP-E^2070-C” addresses B2. Kind of test: SEC. A general note: In gel filtration, larger molecules generally elute earlier.
The target of a further test is BubR1:Bub3 complex (human, UniProt O60566 1-1050; O43684 1-328). Kind of test: SEC.
Chain of BubR1:Bub3 complex (O43684 whole entry, one chain of several): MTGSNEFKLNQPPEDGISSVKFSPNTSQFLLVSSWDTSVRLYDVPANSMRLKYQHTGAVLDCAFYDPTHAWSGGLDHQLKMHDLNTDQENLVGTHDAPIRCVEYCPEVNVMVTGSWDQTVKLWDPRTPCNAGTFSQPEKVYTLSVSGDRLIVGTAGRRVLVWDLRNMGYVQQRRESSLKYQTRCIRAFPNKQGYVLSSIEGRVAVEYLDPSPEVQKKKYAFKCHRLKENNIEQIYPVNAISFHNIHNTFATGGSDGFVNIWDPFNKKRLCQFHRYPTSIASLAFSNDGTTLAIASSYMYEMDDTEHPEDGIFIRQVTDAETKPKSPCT

Turning to “mCherry-CENP-F^2922-2990 (from UniProt P49454 2922-2990) (domain or fragment)”, the stoichiometry N in test [1] was found to be 2.

In test [2], “mCherry-CENP-F^2866-2990 (from UniProt P49454 2866-2990) (domain or fragment)” had a stoichiometry N of 2.

B1: BubR1 pseudokinase domain (KinD, residues 705-1050) (domain or fragment, human, UniProt O60566 705-1050, looked up)
chain: EKLELTNETSENPTQSPWCSQYRRQLLKSLPELSASAELCIEDRPMPKLEIEKEIELGNEDYCIKREYLICEDYKLFWVAPRNSAELTVIKVSSQPVPWDFYINLKLKERLNEDFDHFCSCYQYQDGCIVWHQYINCFTLQDLLQHSEYITHEITVLIIYNLLTIVEMLHKAEIVHGDLSPRCLILRNRIHDPYDCNKNNQALKIVDFSYSVDLRVQLDVFTLSGFRTVQILEGQKILANCSSPYQVDLFGIADLAHLLLFKEHLQVFWDGSFWKLSQNISELKDGELWNKFFVRILNANDEATVSVLGELAAEMNGVFDTTFQSHLNKALWKVGKLTSPGALLFQ
As to B1, the binding result with eGFP-CENP-E^2070-C is listed as “binds”. Consider B2, for which, in the test with BubR1:Bub3 complex, the binding result was “binds”.
